Measured values reported in article PMC12021056, “MISP Suppresses Ferroptosis via MST1/2 Kinases to Facilitate YAP Activation in Non‐Small Cell Lung Cancer” (Advanced Science, 2025).

Assays:
His-MST2 (aa279-491) = molecular target: T1, His-MST2 (aa279-491) (UniProt Q13188 279-491); assay: pull-down; 2 µg GST or GST-MISP (aa352-524) incubated with 2 µg His-MST1 (aa301-487) or His-MST2 (aa279-491) for 12 h at 4 °C; SDS-PAGE and Coomassie blue staining; conditions: both partners purified
T1 construct: MST2 kinase, amino acids 279-491 (holds the C-terminal SARAH domain); also called SARAH domain of MST2; source: E. coli BL21, purified (Ni-NTA agarose)
T1 sequence (looked up): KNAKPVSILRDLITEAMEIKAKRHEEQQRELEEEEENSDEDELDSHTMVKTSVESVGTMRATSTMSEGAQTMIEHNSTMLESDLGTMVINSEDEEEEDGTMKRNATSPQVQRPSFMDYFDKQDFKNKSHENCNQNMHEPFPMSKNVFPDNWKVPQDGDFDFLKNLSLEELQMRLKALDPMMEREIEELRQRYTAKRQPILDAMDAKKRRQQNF

His-MST1 (aa301-487) = molecular target: T2, His-MST1 (aa301-487) (UniProt Q13043 301-487); assay: as above; conditions: both partners purified
T2 construct: MST1 kinase, amino acids 301-487 (holds the C-terminal SARAH domain, aa431-487); also called SARAH domain of MST1; source: E. coli BL21, purified (Ni-NTA agarose)
T2 sequence (looked up): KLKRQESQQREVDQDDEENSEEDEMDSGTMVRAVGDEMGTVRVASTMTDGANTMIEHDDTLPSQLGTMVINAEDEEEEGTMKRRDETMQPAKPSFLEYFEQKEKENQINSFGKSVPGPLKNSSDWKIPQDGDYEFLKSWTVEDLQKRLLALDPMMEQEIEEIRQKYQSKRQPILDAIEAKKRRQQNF

binding result (His-MST2 (aa279-491)): binds
binding result (His-MST1 (aa301-487)): binds
B1: GST-MISP (aa352-524) (domain or fragment, UniProt Q8IVT2 352-524, looked up)
chain: QRDIVQETQREEDHRREGLHVGRASTPDWVSEGPQPGLRRALSSDSILSPAPDARAADPAPEVRKVNRIPPDAYQPYLSPGTPQLEFSAFGAFGKPSSLSTAEAKAATSPKATMSPRHLSESSGKPLSTKQEASKPPRGCPQANRGVVRWEYFRLRPLRFRAPDEPQQAQVPH
notes: source: E. coli BL21, purified (glutathione S-transferase agarose)
